# B1: GLUT2 promoter HNF1A site (dsDNA)
# DNA 1: CTCAGTAAAGATTAACCAT
# DNA 2: ATGGTTAATCTTTACTGAG
# Target: HNF1A (rHNF1A) (UniProt P20823 1-631)
# Experiment: EMSA; two complexes, complex 1 more abundant; abolished by 300x unlabeled probe; 12 mM Hepes pH 7.9, 60 mM KCl, 10% glycerol, 1 mM EDTA, 1 mM MgCl2, 1 mM DTT plus DNA mix (1 mM spermidine, 1 mM MgCl2), 1 ug poly(dG/dC)·poly(dG-dC), 4 C; probe 1.29 nM (0.52 nM in mutant titration); 6% PAGE, 0.5x TBE
# Conditions: protein: ivt; chain copies: 2; label: 32P 5' end (T4 PNK)
# HNF1A (rHNF1A), sequence (P20823 whole entry): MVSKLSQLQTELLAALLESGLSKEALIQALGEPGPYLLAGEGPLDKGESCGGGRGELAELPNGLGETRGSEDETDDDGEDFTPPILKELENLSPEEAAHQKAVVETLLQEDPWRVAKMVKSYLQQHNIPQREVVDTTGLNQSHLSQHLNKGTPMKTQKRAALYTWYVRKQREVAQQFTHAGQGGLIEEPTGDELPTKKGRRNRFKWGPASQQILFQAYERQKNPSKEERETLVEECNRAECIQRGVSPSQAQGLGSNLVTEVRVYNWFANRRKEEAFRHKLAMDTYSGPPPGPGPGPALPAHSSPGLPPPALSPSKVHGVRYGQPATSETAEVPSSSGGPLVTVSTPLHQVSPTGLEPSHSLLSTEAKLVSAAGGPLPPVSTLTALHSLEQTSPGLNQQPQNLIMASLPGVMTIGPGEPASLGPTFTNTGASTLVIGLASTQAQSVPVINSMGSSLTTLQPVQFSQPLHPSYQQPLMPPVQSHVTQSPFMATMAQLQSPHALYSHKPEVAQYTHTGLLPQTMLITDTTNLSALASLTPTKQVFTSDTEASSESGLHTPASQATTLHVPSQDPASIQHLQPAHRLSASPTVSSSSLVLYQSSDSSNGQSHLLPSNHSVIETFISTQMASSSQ
binder,measurement,value
B1,binding result,binds

# — paper PMC5241209, “Identification and functional analysis of c.422_423InsT, a novel mutation of the HNF1A gene in a patient with diabetes”
